# Laboratory results from US20250145711A1 (Janssen / Centocor, published 2025).
# Legend:
# [1] = target: T1, TRCW5 antigen (CD3δε-Fc-Avi) (biotinylated (site not stated)); experiment: ELISA
# T1 construct: also called recombinant CD3
# [2] = target: T1, TRCW5 antigen (CD3δε-Fc-Avi); experiment: binding after heat
# [3] = target: T1, TRCW5 antigen (CD3δε-Fc-Avi); experiment: ELISA after heat
# [4] = target: T2, CD3 on primary human pan T cells (human, UniProt P07766 23-207); experiment: flow cytometry, pan T-cells
# T2 construct: on cells it stands in the TCR/CD3 complex; also called Pan T-cells (CD3-positive); endogenous CD3
# T2 sequence (P07766 23-207 limits assumed): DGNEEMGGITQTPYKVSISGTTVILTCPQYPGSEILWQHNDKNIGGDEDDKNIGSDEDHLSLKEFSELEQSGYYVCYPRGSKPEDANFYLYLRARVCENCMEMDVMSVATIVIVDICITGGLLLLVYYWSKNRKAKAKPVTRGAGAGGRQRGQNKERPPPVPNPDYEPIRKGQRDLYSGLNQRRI
# T1 sequence (chain, as listed by the source mutant limits assumed): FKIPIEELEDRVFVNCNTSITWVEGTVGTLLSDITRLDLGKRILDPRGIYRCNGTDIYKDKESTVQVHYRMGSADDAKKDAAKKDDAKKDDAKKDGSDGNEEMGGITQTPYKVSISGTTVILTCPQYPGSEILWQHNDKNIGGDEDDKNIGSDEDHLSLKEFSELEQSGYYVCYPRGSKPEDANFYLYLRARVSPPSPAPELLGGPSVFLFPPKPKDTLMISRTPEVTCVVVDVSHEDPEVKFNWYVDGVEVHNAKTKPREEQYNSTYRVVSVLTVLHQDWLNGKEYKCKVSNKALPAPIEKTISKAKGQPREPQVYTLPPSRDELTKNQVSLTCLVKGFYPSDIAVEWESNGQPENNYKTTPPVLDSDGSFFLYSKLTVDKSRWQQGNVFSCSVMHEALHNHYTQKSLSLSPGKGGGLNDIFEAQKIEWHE
EC50 [1] [nM],% Retained 55° C. [2] [%],% Retained 60° C. [2] [%],% Retained 65° C. [2] [%],Binder,also measured
12.8,111,103,55.6,CD3B2030 N106A (scFv) scFv: QVQLVQSGAEVKKPGSSVKVSCKASGYTFTRSTMHWVKQAPGQGLEWIGYINPSSAYTNYNQKFQGRVTLTADKSTSTAYMELSSLRSEDTAVYYCASPQVHYDYAGFPYWGQGTLVTVSSGGSEGKSSGSGSESKSTGGSEIVLTQSPATLSASPGERVTLSCSASSSVSYMNWYQQKPGQAPRRWIYDSSKLASGVPARFSGSGSGRDYTLTISSLEPEDFAVYYCQQWSRNPPTFGGGTKVEIK,
,,,,CD3B2085 (scFv) scFv: QVQLVQSGAEVKKPGSSVKVSCKASGYTFTRSTMHWVRQAPGQGLEWMGYINPSSAYTNYAQKFQGRVTLTADKSTSTAYMELSSLRSEDTAVYYCASPQVHYDYNGFPYWGQGTLVTVSSGGSEGKSSGSGSESKSTGGSEIVLTQSPATLSASPGERVTLSCSASSSVSYMNWYQQKPGTAPRRWIYDSSKLASGVPARFSGSGSGRDYTLTISSLEPEDFAVYYCQQWSRNPPTFGGGTKVEIK,"% Retained 55° C. [3]: 112%; % Retained 60° C. [3]: 117%; % Retained 65° C. [3]: 18%; % Binding retained on T-cells, 55° C. [4]: 1.01 fraction; % Binding retained on T-cells, 60° C. [4]: 0.411 fraction; % Binding retained on T-cells, 65° C. [4]: 0.385 fraction; % Binding retained on T-cells, RT [4]: 1 fraction"
~13.3,,,,CD3B2030 N106I (scFv) scFv: QVQLVQSGAEVKKPGSSVKVSCKASGYTFTRSTMHWVKQAPGQGLEWIGYINPSSAYTNYNQKFQGRVTLTADKSTSTAYMELSSLRSEDTAVYYCASPQVHYDYIGFPYWGQGTLVTVSSGGSEGKSSGSGSESKSTGGSEIVLTQSPATLSASPGERVTLSCSASSSVSYMNWYQQKPGQAPRRWIYDSSKLASGVPARFSGSGSGRDYTLTISSLEPEDFAVYYCQQWSRNPPTFGGGTKVEIK,
14.3,115,59.8,1.7,CD3B2030 N106G (scFv) scFv: QVQLVQSGAEVKKPGSSVKVSCKASGYTFTRSTMHWVKQAPGQGLEWIGYINPSSAYTNYNQKFQGRVTLTADKSTSTAYMELSSLRSEDTAVYYCASPQVHYDYGGFPYWGQGTLVTVSSGGSEGKSSGSGSESKSTGGSEIVLTQSPATLSASPGERVTLSCSASSSVSYMNWYQQKPGQAPRRWIYDSSKLASGVPARFSGSGSGRDYTLTISSLEPEDFAVYYCQQWSRNPPTFGGGTKVEIK,
~24,,,,CD3B2030 N106P (scFv) scFv: QVQLVQSGAEVKKPGSSVKVSCKASGYTFTRSTMHWVKQAPGQGLEWIGYINPSSAYTNYNQKFQGRVTLTADKSTSTAYMELSSLRSEDTAVYYCASPQVHYDYPGFPYWGQGTLVTVSSGGSEGKSSGSGSESKSTGGSEIVLTQSPATLSASPGERVTLSCSASSSVSYMNWYQQKPGQAPRRWIYDSSKLASGVPARFSGSGSGRDYTLTISSLEPEDFAVYYCQQWSRNPPTFGGGTKVEIK,
9.7,106,83.3,21.8,CD3B2030 N106F (scFv) scFv: QVQLVQSGAEVKKPGSSVKVSCKASGYTFTRSTMHWVKQAPGQGLEWIGYINPSSAYTNYNQKFQGRVTLTADKSTSTAYMELSSLRSEDTAVYYCASPQVHYDYFGFPYWGQGTLVTVSSGGSEGKSSGSGSESKSTGGSEIVLTQSPATLSASPGERVTLSCSASSSVSYMNWYQQKPGQAPRRWIYDSSKLASGVPARFSGSGSGRDYTLTISSLEPEDFAVYYCQQWSRNPPTFGGGTKVEIK,
10.6,104,98.9,55.7,CD3B2030 N106H (scFv) scFv: QVQLVQSGAEVKKPGSSVKVSCKASGYTFTRSTMHWVKQAPGQGLEWIGYINPSSAYTNYNQKFQGRVTLTADKSTSTAYMELSSLRSEDTAVYYCASPQVHYDYHGFPYWGQGTLVTVSSGGSEGKSSGSGSESKSTGGSEIVLTQSPATLSASPGERVTLSCSASSSVSYMNWYQQKPGQAPRRWIYDSSKLASGVPARFSGSGSGRDYTLTISSLEPEDFAVYYCQQWSRNPPTFGGGTKVEIK,
~27.4,,,,CD3B2089 N106P (scFv) scFv: QVQLVQSGAEVKKPGSSVKVSCKASGYTFTRSTMHWVRQAPGQGLEWMGYINPSSAYTNYAQKFQGRVTLTADKSTSTAYMELSSLRSEDTAVYYCASPQVHYDYPGFPYWGQGTLVTVSSGGSEGKSSGSGSESKSTGGSEIVLTQSPATLSASPGERVTLSCSASSSVSYMNWYQQKPGQAPRRWIYDSSKLASGVPARFSGSGSGRDYTLTISSLEPEDFAVYYCQQWSRNPPTFGGGTKVEIK,
14.4,,,,CD3B2089 G107F (scFv) scFv: QVQLVQSGAEVKKPGSSVKVSCKASGYTFTRSTMHWVRQAPGQGLEWMGYINPSSAYTNYAQKFQGRVTLTADKSTSTAYMELSSLRSEDTAVYYCASPQVHYDYNFFPYWGQGTLVTVSSGGSEGKSSGSGSESKSTGGSEIVLTQSPATLSASPGERVTLSCSASSSVSYMNWYQQKPGQAPRRWIYDSSKLASGVPARFSGSGSGRDYTLTISSLEPEDFAVYYCQQWSRNPPTFGGGTKVEIK,
,,,,CD3B2088 (scFv) scFv: QVQLVQSGAEVKKPGSSVKVSCKASGYTFTRSTMHWVRQAPGQGLEWMGYINPSSAYTNYAQKFQGRVTLTADKSTSTAYMELSSLRSEDTAVYYCASPQVHYDYNGFPYWGQGTLVTVSSGGSEGKSSGSGSESKSTGGSEIVLTQSPATLSASPGERVTLSCSASSSVSYMNWYQQKPGQSPRRWIYDSSKLASGVPARFSGSGSGRDYTLTISSLEPEDFAVYYCQQWSRNPPTFGGGTKVEIK,"% Retained 55° C. [3]: 116%; % Retained 60° C. [3]: 114%; % Retained 65° C. [3]: 26%; % Binding retained on T-cells, 55° C. [4]: 1.01 fraction; % Binding retained on T-cells, 60° C. [4]: 0.461 fraction; % Binding retained on T-cells, 65° C. [4]: 0.258 fraction; % Binding retained on T-cells, RT [4]: 1 fraction"
30.8,,,,CD3B2089 N106L (scFv) scFv: QVQLVQSGAEVKKPGSSVKVSCKASGYTFTRSTMHWVRQAPGQGLEWMGYINPSSAYTNYAQKFQGRVTLTADKSTSTAYMELSSLRSEDTAVYYCASPQVHYDYLGFPYWGQGTLVTVSSGGSEGKSSGSGSESKSTGGSEIVLTQSPATLSASPGERVTLSCSASSSVSYMNWYQQKPGQAPRRWIYDSSKLASGVPARFSGSGSGRDYTLTISSLEPEDFAVYYCQQWSRNPPTFGGGTKVEIK,
,,,,CD3B2087 (scFv) scFv: QVQLVQSGAEVKKPGSSVKVSCKASGYTFTRSTMHWVRQAPGQGLEWMGYINPSSAYTNYAQKFQGRVTLTADKSTSTAYMELSSLRSEDTAVYYCASPQVHYDYNGFPYWGQGTLVTVSSGGSEGKSSGSGSESKSTGGSEIVLTQSPATLSASPGERVTLSCSASSSVSYMNWYQQKPGTAPRRLIYDSSKLASGVPARFSGSGSGRDYTLTISSLEPEDFAVYYCQQWSRNPPTFGGGTKVEIK,"% Retained 55° C. [3]: 104%; % Retained 60° C. [3]: 94%; % Retained 65° C. [3]: 5%; % Binding retained on T-cells, 55° C. [4]: 1.02 fraction; % Binding retained on T-cells, 60° C. [4]: 0.964 fraction; % Binding retained on T-cells, 65° C. [4]: 0.105 fraction; % Binding retained on T-cells, RT [4]: 1 fraction"
11.4,107,100,25.6,CD3B2030 N106L (scFv) scFv: QVQLVQSGAEVKKPGSSVKVSCKASGYTFTRSTMHWVKQAPGQGLEWIGYINPSSAYTNYNQKFQGRVTLTADKSTSTAYMELSSLRSEDTAVYYCASPQVHYDYLGFPYWGQGTLVTVSSGGSEGKSSGSGSESKSTGGSEIVLTQSPATLSASPGERVTLSCSASSSVSYMNWYQQKPGQAPRRWIYDSSKLASGVPARFSGSGSGRDYTLTISSLEPEDFAVYYCQQWSRNPPTFGGGTKVEIK,
17.4,,,,CD3B2089 G107V (scFv) scFv: QVQLVQSGAEVKKPGSSVKVSCKASGYTFTRSTMHWVRQAPGQGLEWMGYINPSSAYTNYAQKFQGRVTLTADKSTSTAYMELSSLRSEDTAVYYCASPQVHYDYNVFPYWGQGTLVTVSSGGSEGKSSGSGSESKSTGGSEIVLTQSPATLSASPGERVTLSCSASSSVSYMNWYQQKPGQAPRRWIYDSSKLASGVPARFSGSGSGRDYTLTISSLEPEDFAVYYCQQWSRNPPTFGGGTKVEIK,
~429,,,,CD3B2089 N106G (scFv) scFv: QVQLVQSGAEVKKPGSSVKVSCKASGYTFTRSTMHWVRQAPGQGLEWMGYINPSSAYTNYAQKFQGRVTLTADKSTSTAYMELSSLRSEDTAVYYCASPQVHYDYGGFPYWGQGTLVTVSSGGSEGKSSGSGSESKSTGGSEIVLTQSPATLSASPGERVTLSCSASSSVSYMNWYQQKPGQAPRRWIYDSSKLASGVPARFSGSGSGRDYTLTISSLEPEDFAVYYCQQWSRNPPTFGGGTKVEIK,
11.7,99.7,87.2,7.3,CD3B2030 N106K (scFv) scFv: QVQLVQSGAEVKKPGSSVKVSCKASGYTFTRSTMHWVKQAPGQGLEWIGYINPSSAYTNYNQKFQGRVTLTADKSTSTAYMELSSLRSEDTAVYYCASPQVHYDYKGFPYWGQGTLVTVSSGGSEGKSSGSGSESKSTGGSEIVLTQSPATLSASPGERVTLSCSASSSVSYMNWYQQKPGQAPRRWIYDSSKLASGVPARFSGSGSGRDYTLTISSLEPEDFAVYYCQQWSRNPPTFGGGTKVEIK,
21.4,,,,CD3B2089 G107Y (scFv) scFv: QVQLVQSGAEVKKPGSSVKVSCKASGYTFTRSTMHWVRQAPGQGLEWMGYINPSSAYTNYAQKFQGRVTLTADKSTSTAYMELSSLRSEDTAVYYCASPQVHYDYNYFPYWGQGTLVTVSSGGSEGKSSGSGSESKSTGGSEIVLTQSPATLSASPGERVTLSCSASSSVSYMNWYQQKPGQAPRRWIYDSSKLASGVPARFSGSGSGRDYTLTISSLEPEDFAVYYCQQWSRNPPTFGGGTKVEIK,
